What is called Kd is the concentration at which binding is half-saturated.

Experimental findings from patent US20140004175A1 (COMPUGEN, published 2014) are described below.

The target in assay [1] is T1, recombinant human Ang1 carrier-free (R&D Systems, Cat#923-AN-025/CF) (human, UniProt Q15389 20-498, limits assumed).
T1 construct: Bought recombinant protein; also called angiopoietin 1
T1 sequence: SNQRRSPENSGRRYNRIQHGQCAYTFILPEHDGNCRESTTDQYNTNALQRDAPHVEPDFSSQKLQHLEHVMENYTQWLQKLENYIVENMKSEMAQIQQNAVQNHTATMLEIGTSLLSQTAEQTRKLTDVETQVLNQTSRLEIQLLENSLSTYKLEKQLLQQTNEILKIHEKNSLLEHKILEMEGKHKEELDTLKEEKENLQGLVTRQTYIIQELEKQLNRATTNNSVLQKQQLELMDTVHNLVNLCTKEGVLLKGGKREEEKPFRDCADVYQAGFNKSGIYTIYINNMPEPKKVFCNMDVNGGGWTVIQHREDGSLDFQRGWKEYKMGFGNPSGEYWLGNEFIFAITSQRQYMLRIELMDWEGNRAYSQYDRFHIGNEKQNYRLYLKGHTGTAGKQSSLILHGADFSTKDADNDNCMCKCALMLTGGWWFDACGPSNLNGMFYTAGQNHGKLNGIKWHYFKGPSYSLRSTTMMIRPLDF
Put plainly: SPR (BIAcore), Ang1 immobilised on CM5, peptide 0.625-0.039 µM, 1:1 Langmuir fit. The method, then: (§1) Peptide-protein binding was analyzed using surface plasmon resonance. […] Solutions containing 10-50 μM of CGEN-H2 [SEQ ID NO: 1], CGEN-H3 [SEQ ID NO: 2], CGEN-A8 [SEQ ID NO: 3], CGEN-H7 [SEQ ID NO: 4], CGEN-G4 [SEQ ID NO: 5], CGEN-G6 [SEQ ID NO: 6], CGEN-F9 [SEQ ID NO: 7], CGEN-F12 [SEQ ID NO: 8], CGEN-C6 [SEQ ID NO: 9], CGEN-A11 [SEQ ID NO: 10], and CGEN-G2 [SEQ ID NO: 11] peptides were injected into the sample chamber of the BIACORE device at a rate of […] and the interaction was monitored using surface plasmon resonance. […]
(§2) Peptides CGEN-G6 [SEQ ID NO: 6], CGEN-F9 [SEQ ID NO: 7], CGEN-F12 [SEQ ID NO: 8], CGEN-A11 [SEQ ID NO: 10], and CGEN-G2 [SEQ ID NO: 11] were capable of binding to immobilized Ang1, Ang2, and Ang4 on the chip and were further analyzed for binding kinetics, as follows. Solutions containing different concentrations of CGEN-G6 [SEQ ID NO: 6], CGEN-F9 [SEQ ID NO: 7], CGEN-F12 [SEQ ID NO: 8], CGEN-A11 [SEQ ID NO: 10], and CGEN-G2 [SEQ ID NO: 11] peptides (as indicated in Table 2) were injected into the sample chamber of the BIACORE device at a rate of […] and the interaction was monitored using surface plasmon resonance.

The target of assay [2] is T2, recombinant human Ang4 carrier-free (R&D Systems, Cat#964-AN-025/CF) (human, UniProt Q9Y264 25-503, limits assumed).
T2 construct: Bought recombinant protein; also called angiopoietin 4
T2 sequence: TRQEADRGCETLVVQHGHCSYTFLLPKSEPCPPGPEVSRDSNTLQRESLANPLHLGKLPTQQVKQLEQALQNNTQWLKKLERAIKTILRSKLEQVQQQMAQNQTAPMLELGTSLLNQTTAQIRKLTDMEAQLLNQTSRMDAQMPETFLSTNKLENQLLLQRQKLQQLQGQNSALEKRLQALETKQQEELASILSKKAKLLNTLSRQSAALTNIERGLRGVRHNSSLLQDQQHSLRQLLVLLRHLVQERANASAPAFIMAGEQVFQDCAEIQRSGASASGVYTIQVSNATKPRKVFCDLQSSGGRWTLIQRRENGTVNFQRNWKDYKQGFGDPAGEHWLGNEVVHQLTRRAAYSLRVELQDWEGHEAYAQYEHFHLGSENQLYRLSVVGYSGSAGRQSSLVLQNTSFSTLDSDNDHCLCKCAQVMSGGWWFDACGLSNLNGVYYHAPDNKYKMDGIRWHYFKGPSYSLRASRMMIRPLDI
Put plainly: SPR (BIAcore), Ang4 immobilised on CM5, peptide 0.625-0.039 µM, 1:1 Langmuir fit. The method, then: as §1, §2
(SPR reads the build-up and loss of mass on a sensor chip optically.)

Assay [3] has as its target T3, recombinant human Ang2 carrier-free (R&D Systems, Cat#623-AN-025/CF) (human, UniProt O15123 19-496).
T3 construct: Bought recombinant protein; also called angiopoietin 2
T3 sequence: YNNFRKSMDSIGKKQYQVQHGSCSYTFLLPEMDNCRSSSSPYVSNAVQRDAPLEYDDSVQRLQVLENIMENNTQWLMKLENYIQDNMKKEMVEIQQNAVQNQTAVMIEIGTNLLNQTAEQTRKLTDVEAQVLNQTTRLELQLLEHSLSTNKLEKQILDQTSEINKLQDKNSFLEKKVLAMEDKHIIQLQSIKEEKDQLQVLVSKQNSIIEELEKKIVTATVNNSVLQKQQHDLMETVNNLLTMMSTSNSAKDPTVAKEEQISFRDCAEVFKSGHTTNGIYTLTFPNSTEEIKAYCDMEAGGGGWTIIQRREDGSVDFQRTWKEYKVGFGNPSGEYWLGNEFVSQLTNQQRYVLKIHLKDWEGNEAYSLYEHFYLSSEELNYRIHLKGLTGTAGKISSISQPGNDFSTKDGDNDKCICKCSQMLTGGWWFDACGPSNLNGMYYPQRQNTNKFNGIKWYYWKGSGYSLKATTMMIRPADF
Put plainly: SPR (BIAcore), Ang2 immobilised on CM5, peptide 0.625-0.039 µM, 1:1 Langmuir fit. The method, then: as §1, §2

Assay [4] has as its target T1, recombinant human Ang1 carrier-free …. Put plainly: SPR (BIAcore), Ang1 immobilised on CM5, peptide 25-1.56 µM, 1:1 Langmuir fit. The method, then: as §1, §2
The target in assay [5] is T3, recombinant human Ang2 carrier-free …. Kind of assay: SPR (BIAcore), Ang2 immobilised on CM5, peptide 25-1.56 µM, 1:1 Langmuir fit. The method, then: as §1, §2
Assay [6] addresses T2, recombinant human Ang4 carrier-free …. Kind of assay: SPR (BIAcore), Ang4 immobilised on CM5, peptide 25-1.56 µM, 1:1 Langmuir fit. The method, then: as §1, §2
Assay [7] addresses T1, recombinant human Ang1 carrier-free …. Kind of assay: SPR competition (BIAcore), Tie-2/Fc immobilised; Ang1 100-500 nM with peptide 10-50 µM at 1:100. The method, then:
Peptide-protein interaction was analyzed using surface plasmon resonance. Analysis of is the interaction between CGEN-G6 [SEQ ID NO: 6], CGEN-F9 [SEQ ID NO: 7], CGEN-C6 [SEQ ID NO: 9], CGEN-A11 [SEQ ID NO: 10], and CGEN-G2 [SEQ ID NO: 11] peptides and recombinant human Tie-2/Fc chimera (carrier-free, R&D Systems, Cat#313-TI, Lot#BKC0707121) was conducted using the BIAcore biosensor (Pharmacia Biosensor, Uppsala, Sweden). The recombinant Tie-2/Fc chimera was immobilized directly to a CM5 sensor chip. Solutions containing 10-50 μM of CGEN-G6 [SEQ ID NO: 6], CGEN-F9 [SEQ ID NO: 7], CGEN-C6 [SEQ ID NO: 9], CGEN-A11 [SEQ ID NO: 10], and CGEN-G2 [SEQ ID NO: 11] were injected into the sample chamber of the BIACORE device at a rate of 20 μl/min and the interaction was monitored using surface plasmon resonance. In addition, solutions containing 100-500 nM of Ang1, Ang2, and Ang4 proteins were injected alone or in combination with 10-50 μM of CGEN-G6 [SEQ ID NO: 6], CGEN-F9 [SEQ ID NO: 7], CGEN-C6 [SEQ ID NO: 9], CGEN-A11 [SEQ ID NO: 10], and CGEN-G2 [SEQ ID NO: 11] peptides at a constant ratio of 1:100 (Ang ligand to peptide) into the sample chamber of the BIACORE device at a rate of 20 μl/min and the interaction was monitored using surface plasmon resonance.
Binding of Ang2 to Tie2 was reduced by 91-100% after incubation with CGEN-G6 [SEQ ID NO: 6] and CGEN-C6 [SEQ ID NO: 9], and to a lesser extent after incubation with CGEN-A11 [SEQ ID NO: 10] and CGEN-F9 [SEQ ID NO: 7] peptides (FIG. 5B). […] Binding of peptides alone to Tie2 was negligible in most cases.

Assay [8] concerns the target T2, recombinant human Ang4 carrier-free …. Put plainly: SPR (BIAcore), Ang4 immobilised on CM5, peptide 1.25-0.039 µM, 1:1 Langmuir fit. The method, then:
as §1, §2

In assay [9] the target is T3, recombinant human Ang2 carrier-free …. Put plainly: SPR (BIAcore), Ang2 immobilised on CM5. The method, then: (§3) Peptide-protein binding was analyzed using surface plasmon resonance. Analysis of the to interaction between CGEN-H2 [SEQ ID NO: 1], CGEN-H3 [SEQ ID NO: 2], CGEN-A8 [SEQ ID NO: 3], CGEN-H7 [SEQ ID NO: 4], CGEN-G4 [SEQ ID NO: 5], CGEN-G6 [SEQ ID NO: 6], CGEN-F9 [SEQ ID NO: 7], CGEN-F12 [SEQ ID NO: 8], CGEN-C6 [SEQ ID NO: 9], CGEN-A11 [SEQ ID NO: 10], and CGEN-G2 [SEQ ID NO: 11] peptides and recombinant human Ang1 carrier-free (R&D Systems, Cat#923-AN-025/CF, Lot#FHW1507031), human Ang2 carrier-free (R&D Systems, Cat#623-AN-025/CF, Lot#BNO0457121), and human Ang4 carrier-free (R&D Systems, Cat#964-AN-025/CF, Lot#ELM025121) was conducted using the BIAcore biosensor (Pharmacia Biosensor, Uppsala, Sweden). The recombinant Ang1, Ang2, and Ang4 were immobilized directly to a CM5 sensor chip. Solutions containing 10-50 μM of CGEN-H2 [SEQ ID NO: 1], CGEN-H3 [SEQ ID NO: 2], CGEN-A8 [SEQ ID NO: 3], CGEN-H7 [SEQ ID NO: 4], CGEN-G4 [SEQ ID NO: 5], CGEN-G6 [SEQ ID NO: 6], CGEN-F9 [SEQ ID NO: 7], CGEN-F12 [SEQ ID NO: 8], CGEN-C6 [SEQ ID NO: 9], CGEN-A11 [SEQ ID NO: 10], and CGEN-G2 [SEQ ID NO: 11] peptides were injected into the sample chamber of the BIACORE device at a rate of […] and the interaction was monitored using surface plasmon resonance. […] Binding of CGEN-C6 to Ang2 was not sufficiently strong and too noisy for kinetic measurements or determination of affinity constant.

Assay [10] concerns the target T1, recombinant human Ang1 carrier-free …. Put plainly: SPR (BIAcore), Ang1 immobilised on CM5, peptide 1.25-0.039 µM, 1:1 Langmuir fit. The method, then: as §1, §2
For assay [11], the target named is T3, recombinant human Ang2 carrier-free …. Kind of assay: SPR (BIAcore), Ang2 immobilised on CM5, peptide 10-50 µM. The method, then:
as §3

Assay [12] addresses T2, recombinant human Ang4 carrier-free …. Put plainly: SPR (BIAcore), Ang4 immobilised on CM5 chip, peptide injected. The method, then: as §3

As to Ac-QHSLRQLLVLLRHLVQERANASA-NH2 (MW 2694.3) [CGEN-F12 (SEQ ID NO: 8)], the results for the Kd in [1], in [2] and in assay [3] were 1.88 nM, 0.243 nM and 5840 nM, respectively.

Consider Ac-TQQVKQLEQALQNNTQWLKKLERAIKTIL-NH2 [CGEN-G2 (SEQ ID NO: 11)], for which the Kd is 17.4 nM in [1], 25 nM in [2] and 56.6 nM in assay [3].

For the molecule Ac-QEELASILSKKAKLLNTLSRQSAALTNIERGLRGVR-NH2 (MW 4006.8) [CGEN-F9 (SEQ ID NO: 7)], the Kd in assay [4] came to 21400 nM; in [5] it was 3070 nM; in assay [6] it was 2820 nM. The “reduction of Ang1 binding to Tie2” value in [7] was no more than 34%.

Turning to Ac-ETFLSTNKLENQ-NH2 (MW 1464.7) [CGEN-A11 (SEQ ID NO: 10)], the Kd was determined as 6740 nM in [4], 2360 nM in [5] and 3690 nM in assay [6]. Moreover, the “reduction of Ang1 binding to Tie2” value in assay [7] was no more than 34%.

With Ac-DLMETVNNLLTMMSTSNSAKD-NH2 (MW 2356.8) [CGEN-G6 (SEQ ID NO: 6)], the Kd in assay [8] was determined as 22.1 nM; in [10] it was 13.3 nM. Also, the binding result in assay [9] was “binds”. Moreover, in assay [7], the “reduction of Ang1 binding to Tie2” value is no more than 34%.

Ac-TDMEAQLLNQTSRMDAQM-NH2 (MW 2124.5) [CGEN-C6 (SEQ ID NO: 9)]: the binding result in assay [11] is given as “binds”; in assay [12], “no binding (tested: 10-50 µM)”. Moreover, the “reduction of Ang1 binding to Tie2” value in assay [7] was no more than 34%.
